Sequences and labels used below:
T1: amphyphisin SH3 (AMPH_HUMAN), P49418
T1 chain: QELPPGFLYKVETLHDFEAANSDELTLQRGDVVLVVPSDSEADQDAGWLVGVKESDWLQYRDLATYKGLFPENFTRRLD

The first assay has as its target endophilin SH3 (SH3G2_HUMAN), Q99962. Description: SPOT array.
In turn, LVIRLPRPPKVLRL [Q9HC66 56-69] registered a normalised SPOT signal, Boehringer light units (BLU); mean over the file's lines of this peptide of 2110.

LTVAIRRPPDLGGP [Q96NX2 418-431] came in with a normalised SPOT signal, Boehringer light units (BLU); mean over the file's lines of this peptide of 17.9.

LVPVPARPPLTRGQ [Q96EY9 124-138] registered a normalised SPOT signal, Boehringer light units (BLU); mean over the file's lines of this peptide of 3430.

The molecule LTSGLRRPFGVAVM [Q14185 317-330] yielded a normalised SPOT signal, Boehringer light units (BLU); mean over the file's lines of this peptide of 43.

In turn, LTLNIRRPSPFDAG [Q14324 1104-1117] yielded a normalised SPOT signal, Boehringer light units (BLU); mean over the file's lines of this peptide of 159.

The molecule LTLKPIRPRKYPNR [Q06889 251-264] yielded a normalised SPOT signal, Boehringer light units (BLU); mean over the file's lines of this peptide of 102.

Consider LSPRPEKPPEEPGQ [O14687 279-293], for which the normalised SPOT signal, Boehringer light units (BLU); mean over the file's lines of this peptide was 39.8.

APRYLGRPKKEKTI [Q9C0B5 292-305] displayed a normalised SPOT signal, Boehringer light units (BLU); mean over the file's lines of this peptide of 69.5.

LVIRPPRPPKVLRL [Q9H3C0 95-109] showed a normalised SPOT signal, Boehringer light units (BLU); mean over the file's lines of this peptide of 19500.

LVNGFLRPLRMAAS [Q9UK56 265-278] yielded a normalised SPOT signal, Boehringer light units (BLU); mean over the file's lines of this peptide of 176.

For the molecule LSSPLRRPWDQAQH [Q9P2W0 105-118], the normalised SPOT signal, Boehringer light units (BLU); mean over the file's lines of this peptide came out at 280.

In turn, LTSFLRRPFQSPTS [Q04637 602-615] had a normalised SPOT signal, Boehringer light units (BLU); mean over the file's lines of this peptide of 1560.

APRRPRRPRRPGPS [Q96QG0 341-354] displayed a normalised SPOT signal, Boehringer light units (BLU); mean over the file's lines of this peptide of 1500.

Regarding LTLLFKRPFGTSDP [P09172 129-142], the normalised SPOT signal, Boehringer light units (BLU); mean over the file's lines of this peptide is 44.1.

Turning to LTSGPARPWKSVAL [Q01113 359-372], the normalised SPOT signal, Boehringer light units (BLU); mean over the file's lines of this peptide is 428.

LTHVLSRPRRGSSG [Q9H6B9 44-57]: the normalised SPOT signal, Boehringer light units (BLU); mean over the file's lines of this peptide is 170.

Regarding LVIRLRRPPLRSPR [Q9H8Y6 68-81], the normalised SPOT signal, Boehringer light units (BLU); mean over the file's lines of this peptide was found to be 12900.

As to LVIRLRRPPLRYPR [Q9HAJ1 68-81], the normalised SPOT signal, Boehringer light units (BLU); mean over the file's lines of this peptide is 6210.

Regarding LSKWLKRPGALEKQ [Q96S42 159-172], the normalised SPOT signal, Boehringer light units (BLU); mean over the file's lines of this peptide is 67.5.

Regarding LTIELRRPENEFWV [Q9NVH6 359-372], the normalised SPOT signal, Boehringer light units (BLU); mean over the file's lines of this peptide was 52.4.

Regarding LSERPPRPPPPPPP [Q96Q04 431-445], the normalised SPOT signal, Boehringer light units (BLU); mean over the file's lines of this peptide amounted to 944.

In the case of LTVAIRRPTDDSNQ [Q9Y2E4 454-467], the normalised SPOT signal, Boehringer light units (BLU); mean over the file's lines of this peptide worked out at 158.

The molecule LVLEFLRPDRQGVT [Q14997 962-975] displayed a normalised SPOT signal, Boehringer light units (BLU); mean over the file's lines of this peptide of 49.7.

In the case of LSLLLKRPWDPAVG [Q9NWE5 158-171], the normalised SPOT signal, Boehringer light units (BLU); mean over the file's lines of this peptide is 38.6.

The molecule LTVTLQRPTKELHG [Q9Y2K7 133-146] displayed a normalised SPOT signal, Boehringer light units (BLU); mean over the file's lines of this peptide of 192.

As for LVIRPPRPPKVLGL [P39189 565-579], the normalised SPOT signal, Boehringer light units (BLU); mean over the file's lines of this peptide turned out to be 20800.

On to LVNNFLRPLRMAAS [Q13972 262-275], for which the normalised SPOT signal, Boehringer light units (BLU); mean over the file's lines of this peptide amounted to 1250.

LSDFPKKPPQPELG [Q96QH2 325-339]: the normalised SPOT signal, Boehringer light units (BLU); mean over the file's lines of this peptide was 95.7.

LTWLPPKPPTAFDG [Q16827 346-360] showed a normalised SPOT signal, Boehringer light units (BLU); mean over the file's lines of this peptide of 71.7.

Regarding LTKVFFRPGKFAEF [Q9UM54 753-766], the normalised SPOT signal, Boehringer light units (BLU); mean over the file's lines of this peptide stood at 199.

Turning to LSFHPKRPWILTSL [P53621 15-28], the normalised SPOT signal, Boehringer light units (BLU); mean over the file's lines of this peptide came to 121.

Take APRAPRRPRSPPSS [P27815 35-48]: the normalised SPOT signal, Boehringer light units (BLU); mean over the file's lines of this peptide is 257.

Turning to LSNSLTRPQKLSPV [O60673 804-817], the normalised SPOT signal, Boehringer light units (BLU); mean over the file's lines of this peptide was found to be 106.

With LSGGLKRPSTRTPN [Q9BQL3 78-91], the normalised SPOT signal, Boehringer light units (BLU); mean over the file's lines of this peptide was 27.

LTPVPSKPPVTPAT [Q03112 565-579] had a normalised SPOT signal, Boehringer light units (BLU); mean over the file's lines of this peptide of 37.

Molecule LVNTLKRPKRPPLR [Q9Y2E4 57-70] returned a normalised SPOT signal, Boehringer light units (BLU); mean over the file's lines of this peptide of 48.

As for APVPLLRPHRPSGP [O15450 763-776], the normalised SPOT signal, Boehringer light units (BLU); mean over the file's lines of this peptide was 704.

In turn, LSQPPRRPWGNLTA [P22105 891-904] showed a normalised SPOT signal, Boehringer light units (BLU); mean over the file's lines of this peptide of 154.

The next assay deals with T1, amphyphisin SH3 (AMPH_HUMAN), P49418. Nature of the assay: SPOT array.
LVIRLPRPPKVLRL [Q9HC66 56-69] had a normalised SPOT signal, Boehringer light units (BLU); mean over the file's lines of this peptide of 1960.

In turn, LTVAIRRPPDLGGP [Q96NX2 418-431] had a normalised SPOT signal, Boehringer light units (BLU); mean over the file's lines of this peptide of 23.5.

As for LVPVPARPPLTRGQ [Q96EY9 124-138], the normalised SPOT signal, Boehringer light units (BLU); mean over the file's lines of this peptide stood at 2950.

Take LTSGLRRPFGVAVM [Q14185 317-330]: the normalised SPOT signal, Boehringer light units (BLU); mean over the file's lines of this peptide is 35.6.

LTLNIRRPSPFDAG [Q14324 1104-1117] gave a normalised SPOT signal, Boehringer light units (BLU); mean over the file's lines of this peptide of 8.1.

Regarding LTLKPIRPRKYPNR [Q06889 251-264], the normalised SPOT signal, Boehringer light units (BLU); mean over the file's lines of this peptide turned out to be 482.

Regarding LSPRPEKPPEEPGQ [O14687 279-293], the normalised SPOT signal, Boehringer light units (BLU); mean over the file's lines of this peptide came out at 46.1.

APRYLGRPKKEKTI [Q9C0B5 292-305] showed a normalised SPOT signal, Boehringer light units (BLU); mean over the file's lines of this peptide of 7.1.

Molecule LVIRPPRPPKVLRL [Q9H3C0 95-109] came in with a normalised SPOT signal, Boehringer light units (BLU); mean over the file's lines of this peptide of 14800.

LVNGFLRPLRMAAS [Q9UK56 265-278] came in with a normalised SPOT signal, Boehringer light units (BLU); mean over the file's lines of this peptide of 4910.

The molecule LSSPLRRPWDQAQH [Q9P2W0 105-118] registered a normalised SPOT signal, Boehringer light units (BLU); mean over the file's lines of this peptide of 100.

With LTSFLRRPFQSPTS [Q04637 602-615], the normalised SPOT signal, Boehringer light units (BLU); mean over the file's lines of this peptide stood at 70.3.

On to APRRPRRPRRPGPS [Q96QG0 341-354], for which the normalised SPOT signal, Boehringer light units (BLU); mean over the file's lines of this peptide is 2420.

LTLLFKRPFGTSDP [P09172 129-142] registered a normalised SPOT signal, Boehringer light units (BLU); mean over the file's lines of this peptide of 41.

Take LTSGPARPWKSVAL [Q01113 359-372]: the normalised SPOT signal, Boehringer light units (BLU); mean over the file's lines of this peptide came out at 142.

Molecule LTHVLSRPRRGSSG [Q9H6B9 44-57] yielded a normalised SPOT signal, Boehringer light units (BLU); mean over the file's lines of this peptide of 2960.

The molecule LVIRLRRPPLRSPR [Q9H8Y6 68-81] came in with a normalised SPOT signal, Boehringer light units (BLU); mean over the file's lines of this peptide of 90.6.

In turn, LVIRLRRPPLRYPR [Q9HAJ1 68-81] returned a normalised SPOT signal, Boehringer light units (BLU); mean over the file's lines of this peptide of 387.

LSKWLKRPGALEKQ [Q96S42 159-172] came in with a normalised SPOT signal, Boehringer light units (BLU); mean over the file's lines of this peptide of 21.1.

In turn, LTIELRRPENEFWV [Q9NVH6 359-372] returned a normalised SPOT signal, Boehringer light units (BLU); mean over the file's lines of this peptide of 60.

LSERPPRPPPPPPP [Q96Q04 431-445] showed a normalised SPOT signal, Boehringer light units (BLU); mean over the file's lines of this peptide of 341.

Take LTVAIRRPTDDSNQ [Q9Y2E4 454-467]: the normalised SPOT signal, Boehringer light units (BLU); mean over the file's lines of this peptide turned out to be 29.3.

The molecule LVLEFLRPDRQGVT [Q14997 962-975] returned a normalised SPOT signal, Boehringer light units (BLU); mean over the file's lines of this peptide of 732.

LSLLLKRPWDPAVG [Q9NWE5 158-171] yielded a normalised SPOT signal, Boehringer light units (BLU); mean over the file's lines of this peptide of 30.

As to LTVTLQRPTKELHG [Q9Y2K7 133-146], the normalised SPOT signal, Boehringer light units (BLU); mean over the file's lines of this peptide came to 94.9.

Molecule LVIRPPRPPKVLGL [P39189 565-579] registered a normalised SPOT signal, Boehringer light units (BLU); mean over the file's lines of this peptide of 12400.

In turn, LVNNFLRPLRMAAS [Q13972 262-275] had a normalised SPOT signal, Boehringer light units (BLU); mean over the file's lines of this peptide of 12100.

In the case of LSDFPKKPPQPELG [Q96QH2 325-339], the normalised SPOT signal, Boehringer light units (BLU); mean over the file's lines of this peptide turned out to be 64.9.

For the molecule LTWLPPKPPTAFDG [Q16827 346-360], the normalised SPOT signal, Boehringer light units (BLU); mean over the file's lines of this peptide stood at 24.

Turning to LTKVFFRPGKFAEF [Q9UM54 753-766], the normalised SPOT signal, Boehringer light units (BLU); mean over the file's lines of this peptide is 132.

As for LSFHPKRPWILTSL [P53621 15-28], the normalised SPOT signal, Boehringer light units (BLU); mean over the file's lines of this peptide was 23.4.

Consider APRAPRRPRSPPSS [P27815 35-48], for which the normalised SPOT signal, Boehringer light units (BLU); mean over the file's lines of this peptide came to 92.3.

Molecule LSNSLTRPQKLSPV [O60673 804-817] displayed a normalised SPOT signal, Boehringer light units (BLU); mean over the file's lines of this peptide of 120.

Regarding LSGGLKRPSTRTPN [Q9BQL3 78-91], the normalised SPOT signal, Boehringer light units (BLU); mean over the file's lines of this peptide was 22.4.

On to LTPVPSKPPVTPAT [Q03112 565-579], for which the normalised SPOT signal, Boehringer light units (BLU); mean over the file's lines of this peptide came out at 55.4.

Turning to LVNTLKRPKRPPLR [Q9Y2E4 57-70], the normalised SPOT signal, Boehringer light units (BLU); mean over the file's lines of this peptide turned out to be 408.

The molecule APVPLLRPHRPSGP [O15450 763-776] displayed a normalised SPOT signal, Boehringer light units (BLU); mean over the file's lines of this peptide of 1350.

On to LSQPPRRPWGNLTA [P22105 891-904], for which the normalised SPOT signal, Boehringer light units (BLU); mean over the file's lines of this peptide worked out at 60.8.
